Data reported in US20190225694A1 (ZAKLADY FARMACEUTYCZNE POLPHARMA, published 2019).

What was measured:
[1] = biological target: T1, integrin α4β1 (coated, direct ELISA) (UniProt P13612 34-970; P05556 21-728, limits assumed); assay: direct ELISA, coated integrin α4β1, anti-human IgG-HRP detection, 4PL fit
T1 construct: Coated on the plate in the direct ELISA; also called α4β1 integrin; VLA-4
Experimental: The principle of this method is to incubate a coated constant amount of integrin α4β1 with serially diluted natalizumab samples. The amount of bound natalizumab is subsequently determined by a mouse, monoclonal anti-human IgG antibody, which is conjugated to horseradish peroxidase (HRP). HRP converts the chromogenic substrate TMB (3,3′,5,5′-tetramethylbenzidine) into a colored dye. The color reaction is measured spectrophotometrically at wavelength 450 nm.
Data are analyzed applying 4 Parameter Logistic nonlinear regression model (4PL), which is commonly used for curve-fitting analysis in bioassays or immunoassays such as ELISAs or dose-response curves. Final result is expressed as a Relative Potency (REP) of tested sample in relation to interim reference standard established at Polpharma site. The method variability was determined at the level of 7% coefficient variation (CV) of intermediate precision within the qualification exercise.

[2] = biological target: HIS-tagged α4β1 integrin (UniProt P13612 34-970; P05556 21-728, limits assumed); assay: competitive ELISA, coated VCAM-1 as competitor, HIS-tagged α4β1 integrin in solution, 4PL fit
Experimental: Constant amount of the coated VCAM-1 protein is incubated with serial dilutions of natalizumab in the presence of HIS-tagged α4β1 integrin. Solid-phase associated VCAM-1 and soluble natalizumab now compete for binding to α4β1 integrin. The higher the natalizumab concentration the more α4β1 Integrin is inhibited from binding to VCAM-1. The highest signal result is observed when no natalizumab is present. Bound HIS-tagged α4β1 integrin is subsequently detected with a biotinylated anti-HIS-tag antibody, POD-conjugated Streptavidin and a TMB-substrate reaction at the end of the assay.
(§1) Data are analyzed with 4PL fitting model. Final result is expressed as a Relative Potency (REP) of tested sample in relation to reference standard. The method variability was determined at the level of 7% coefficient variation (CV) of intermediate precision within the qualification exercise. Additionally accuracy, linearity and specificity were tested.

[3] = biological target: α4β7 integrin (UniProt P13612 34-970; P26010 20-723); assay: competitive ELISA, coated α4β7 integrin, Fc-tagged MadCAM-1 as competitor, bound antibody detected with anti-human IgG-POD, 4PL fit
Experimental: Constant amount of the coated α4β7 integrin is incubated with serial dilutions of natalizumab in the presence of Fc-tagged MadCAM-1 receptor. natalizumab and MadCAM-1 receptor now compete for binding to solid-phase associated α4β7 integrin. The higher the natalizumab concentration the more MadCAM-1 is inhibited from binding to α4β7 integrin. The lowest signal result is observed when no natalizumab is present. Bound natalizumab is subsequently detected with a POD-conjugated anti-human IgG antibody and a TMB-substrate reaction at the end of the assay.
as §1, with “8%” for “7%”

Row | Binder | Relative Potency (REP), average [1] | Relative Potency (REP), max [1] | Relative Potency (REP), min [1] | Relative Potency (REP), average [2] | Relative Potency (REP), max [2] | Relative Potency (REP), min [2] | Relative Potency (REP), average [3] | Relative Potency (REP), max [3] | Relative Potency (REP), min [3]
1 | natalizumab biosimilar antibody produced by CHO DG44 Clone 1 (antibody, human IgG4, kappa, V domains shown, Tested product from the clone selection step; full-length IgG4) VH: QVQLVQSGAEVKKPGASVKVSCKASGFNIKDTYIHWVRQAPGQRLEWMGRIDPANGYTKYDPKFQGRVTITADTSASTAYMELSSLRSEDTAVYYCAREGYYGNYGVYAMDYWGQGTLVTVSS VL: DIQMTQSPSSLSASVGDRVTITCKTSQDINKYMAWYQQTPGKAPRLLIHYTSALQPGIPSRFSGSGSGRDYTFTISSLQPEDIATYYCLQYDNLWTFGQGTKVEIKR | 0.769 relative to interim reference standard | 0.847 relative to interim reference standard | 0.723 relative to interim reference standard | 0.829 relative to reference standard | 0.842 relative to reference standard | 0.805 relative to reference standard | 0.81 relative to reference standard | 0.857 relative to reference standard | 0.738 relative to reference standard
2 | natalizumab biosimilar antibody produced by CHO DG44 Clone 2 (antibody, human IgG4, kappa, V domains shown, Tested product from the clone selection step; full-length IgG4) VH: QVQLVQSGAEVKKPGASVKVSCKASGFNIKDTYIHWVRQAPGQRLEWMGRIDPANGYTKYDPKFQGRVTITADTSASTAYMELSSLRSEDTAVYYCAREGYYGNYGVYAMDYWGQGTLVTVSS VL: DIQMTQSPSSLSASVGDRVTITCKTSQDINKYMAWYQQTPGKAPRLLIHYTSALQPGIPSRFSGSGSGRDYTFTISSLQPEDIATYYCLQYDNLWTFGQGTKVEIKR | 0.679 relative to interim reference standard | 0.732 relative to interim reference standard | 0.611 relative to interim reference standard | 0.903 relative to reference standard | 0.93 relative to reference standard | 0.85 relative to reference standard | 0.831 relative to reference standard | 0.858 relative to reference standard | 0.79 relative to reference standard
3 | natalizumab reference product (9 batches) (antibody, human IgG4, kappa, V domains shown) VH: QVQLVQSGAEVKKPGASVKVSCKASGFNIKDTYIHWVRQAPGQRLEWMGRIDPANGYTKYDPKFQGRVTITADTSASTAYMELSSLRSEDTAVYYCAREGYYGNYGVYAMDYWGQGTLVTVSS VL: DIQMTQSPSSLSASVGDRVTITCKTSQDINKYMAWYQQTPGKAPRLLIHYTSALQPGIPSRFSGSGSGRDYTFTISSLQPEDIATYYCLQYDNLWTFGQGTKVEIKR |  |  |  | 1.02 relative to reference standard | 1.15 relative to reference standard | 0.935 relative to reference standard | 0.998 relative to reference standard | 1.08 relative to reference standard | 0.922 relative to reference standard
